For 2 substances, binding signal (% of total labeled DNA) results are on record in US20050096288.

For the data set, the target named is VLDL (apolipoprotein B-100 containing) (Homo sapiens) (UniProt P04114). Description: EMSA. The following applies: LDL has greater affinity. Background: In EMSA bound probe runs differently from free probe, usually more slowly.
Chain of UniProt P04114 (P04114 28-4563): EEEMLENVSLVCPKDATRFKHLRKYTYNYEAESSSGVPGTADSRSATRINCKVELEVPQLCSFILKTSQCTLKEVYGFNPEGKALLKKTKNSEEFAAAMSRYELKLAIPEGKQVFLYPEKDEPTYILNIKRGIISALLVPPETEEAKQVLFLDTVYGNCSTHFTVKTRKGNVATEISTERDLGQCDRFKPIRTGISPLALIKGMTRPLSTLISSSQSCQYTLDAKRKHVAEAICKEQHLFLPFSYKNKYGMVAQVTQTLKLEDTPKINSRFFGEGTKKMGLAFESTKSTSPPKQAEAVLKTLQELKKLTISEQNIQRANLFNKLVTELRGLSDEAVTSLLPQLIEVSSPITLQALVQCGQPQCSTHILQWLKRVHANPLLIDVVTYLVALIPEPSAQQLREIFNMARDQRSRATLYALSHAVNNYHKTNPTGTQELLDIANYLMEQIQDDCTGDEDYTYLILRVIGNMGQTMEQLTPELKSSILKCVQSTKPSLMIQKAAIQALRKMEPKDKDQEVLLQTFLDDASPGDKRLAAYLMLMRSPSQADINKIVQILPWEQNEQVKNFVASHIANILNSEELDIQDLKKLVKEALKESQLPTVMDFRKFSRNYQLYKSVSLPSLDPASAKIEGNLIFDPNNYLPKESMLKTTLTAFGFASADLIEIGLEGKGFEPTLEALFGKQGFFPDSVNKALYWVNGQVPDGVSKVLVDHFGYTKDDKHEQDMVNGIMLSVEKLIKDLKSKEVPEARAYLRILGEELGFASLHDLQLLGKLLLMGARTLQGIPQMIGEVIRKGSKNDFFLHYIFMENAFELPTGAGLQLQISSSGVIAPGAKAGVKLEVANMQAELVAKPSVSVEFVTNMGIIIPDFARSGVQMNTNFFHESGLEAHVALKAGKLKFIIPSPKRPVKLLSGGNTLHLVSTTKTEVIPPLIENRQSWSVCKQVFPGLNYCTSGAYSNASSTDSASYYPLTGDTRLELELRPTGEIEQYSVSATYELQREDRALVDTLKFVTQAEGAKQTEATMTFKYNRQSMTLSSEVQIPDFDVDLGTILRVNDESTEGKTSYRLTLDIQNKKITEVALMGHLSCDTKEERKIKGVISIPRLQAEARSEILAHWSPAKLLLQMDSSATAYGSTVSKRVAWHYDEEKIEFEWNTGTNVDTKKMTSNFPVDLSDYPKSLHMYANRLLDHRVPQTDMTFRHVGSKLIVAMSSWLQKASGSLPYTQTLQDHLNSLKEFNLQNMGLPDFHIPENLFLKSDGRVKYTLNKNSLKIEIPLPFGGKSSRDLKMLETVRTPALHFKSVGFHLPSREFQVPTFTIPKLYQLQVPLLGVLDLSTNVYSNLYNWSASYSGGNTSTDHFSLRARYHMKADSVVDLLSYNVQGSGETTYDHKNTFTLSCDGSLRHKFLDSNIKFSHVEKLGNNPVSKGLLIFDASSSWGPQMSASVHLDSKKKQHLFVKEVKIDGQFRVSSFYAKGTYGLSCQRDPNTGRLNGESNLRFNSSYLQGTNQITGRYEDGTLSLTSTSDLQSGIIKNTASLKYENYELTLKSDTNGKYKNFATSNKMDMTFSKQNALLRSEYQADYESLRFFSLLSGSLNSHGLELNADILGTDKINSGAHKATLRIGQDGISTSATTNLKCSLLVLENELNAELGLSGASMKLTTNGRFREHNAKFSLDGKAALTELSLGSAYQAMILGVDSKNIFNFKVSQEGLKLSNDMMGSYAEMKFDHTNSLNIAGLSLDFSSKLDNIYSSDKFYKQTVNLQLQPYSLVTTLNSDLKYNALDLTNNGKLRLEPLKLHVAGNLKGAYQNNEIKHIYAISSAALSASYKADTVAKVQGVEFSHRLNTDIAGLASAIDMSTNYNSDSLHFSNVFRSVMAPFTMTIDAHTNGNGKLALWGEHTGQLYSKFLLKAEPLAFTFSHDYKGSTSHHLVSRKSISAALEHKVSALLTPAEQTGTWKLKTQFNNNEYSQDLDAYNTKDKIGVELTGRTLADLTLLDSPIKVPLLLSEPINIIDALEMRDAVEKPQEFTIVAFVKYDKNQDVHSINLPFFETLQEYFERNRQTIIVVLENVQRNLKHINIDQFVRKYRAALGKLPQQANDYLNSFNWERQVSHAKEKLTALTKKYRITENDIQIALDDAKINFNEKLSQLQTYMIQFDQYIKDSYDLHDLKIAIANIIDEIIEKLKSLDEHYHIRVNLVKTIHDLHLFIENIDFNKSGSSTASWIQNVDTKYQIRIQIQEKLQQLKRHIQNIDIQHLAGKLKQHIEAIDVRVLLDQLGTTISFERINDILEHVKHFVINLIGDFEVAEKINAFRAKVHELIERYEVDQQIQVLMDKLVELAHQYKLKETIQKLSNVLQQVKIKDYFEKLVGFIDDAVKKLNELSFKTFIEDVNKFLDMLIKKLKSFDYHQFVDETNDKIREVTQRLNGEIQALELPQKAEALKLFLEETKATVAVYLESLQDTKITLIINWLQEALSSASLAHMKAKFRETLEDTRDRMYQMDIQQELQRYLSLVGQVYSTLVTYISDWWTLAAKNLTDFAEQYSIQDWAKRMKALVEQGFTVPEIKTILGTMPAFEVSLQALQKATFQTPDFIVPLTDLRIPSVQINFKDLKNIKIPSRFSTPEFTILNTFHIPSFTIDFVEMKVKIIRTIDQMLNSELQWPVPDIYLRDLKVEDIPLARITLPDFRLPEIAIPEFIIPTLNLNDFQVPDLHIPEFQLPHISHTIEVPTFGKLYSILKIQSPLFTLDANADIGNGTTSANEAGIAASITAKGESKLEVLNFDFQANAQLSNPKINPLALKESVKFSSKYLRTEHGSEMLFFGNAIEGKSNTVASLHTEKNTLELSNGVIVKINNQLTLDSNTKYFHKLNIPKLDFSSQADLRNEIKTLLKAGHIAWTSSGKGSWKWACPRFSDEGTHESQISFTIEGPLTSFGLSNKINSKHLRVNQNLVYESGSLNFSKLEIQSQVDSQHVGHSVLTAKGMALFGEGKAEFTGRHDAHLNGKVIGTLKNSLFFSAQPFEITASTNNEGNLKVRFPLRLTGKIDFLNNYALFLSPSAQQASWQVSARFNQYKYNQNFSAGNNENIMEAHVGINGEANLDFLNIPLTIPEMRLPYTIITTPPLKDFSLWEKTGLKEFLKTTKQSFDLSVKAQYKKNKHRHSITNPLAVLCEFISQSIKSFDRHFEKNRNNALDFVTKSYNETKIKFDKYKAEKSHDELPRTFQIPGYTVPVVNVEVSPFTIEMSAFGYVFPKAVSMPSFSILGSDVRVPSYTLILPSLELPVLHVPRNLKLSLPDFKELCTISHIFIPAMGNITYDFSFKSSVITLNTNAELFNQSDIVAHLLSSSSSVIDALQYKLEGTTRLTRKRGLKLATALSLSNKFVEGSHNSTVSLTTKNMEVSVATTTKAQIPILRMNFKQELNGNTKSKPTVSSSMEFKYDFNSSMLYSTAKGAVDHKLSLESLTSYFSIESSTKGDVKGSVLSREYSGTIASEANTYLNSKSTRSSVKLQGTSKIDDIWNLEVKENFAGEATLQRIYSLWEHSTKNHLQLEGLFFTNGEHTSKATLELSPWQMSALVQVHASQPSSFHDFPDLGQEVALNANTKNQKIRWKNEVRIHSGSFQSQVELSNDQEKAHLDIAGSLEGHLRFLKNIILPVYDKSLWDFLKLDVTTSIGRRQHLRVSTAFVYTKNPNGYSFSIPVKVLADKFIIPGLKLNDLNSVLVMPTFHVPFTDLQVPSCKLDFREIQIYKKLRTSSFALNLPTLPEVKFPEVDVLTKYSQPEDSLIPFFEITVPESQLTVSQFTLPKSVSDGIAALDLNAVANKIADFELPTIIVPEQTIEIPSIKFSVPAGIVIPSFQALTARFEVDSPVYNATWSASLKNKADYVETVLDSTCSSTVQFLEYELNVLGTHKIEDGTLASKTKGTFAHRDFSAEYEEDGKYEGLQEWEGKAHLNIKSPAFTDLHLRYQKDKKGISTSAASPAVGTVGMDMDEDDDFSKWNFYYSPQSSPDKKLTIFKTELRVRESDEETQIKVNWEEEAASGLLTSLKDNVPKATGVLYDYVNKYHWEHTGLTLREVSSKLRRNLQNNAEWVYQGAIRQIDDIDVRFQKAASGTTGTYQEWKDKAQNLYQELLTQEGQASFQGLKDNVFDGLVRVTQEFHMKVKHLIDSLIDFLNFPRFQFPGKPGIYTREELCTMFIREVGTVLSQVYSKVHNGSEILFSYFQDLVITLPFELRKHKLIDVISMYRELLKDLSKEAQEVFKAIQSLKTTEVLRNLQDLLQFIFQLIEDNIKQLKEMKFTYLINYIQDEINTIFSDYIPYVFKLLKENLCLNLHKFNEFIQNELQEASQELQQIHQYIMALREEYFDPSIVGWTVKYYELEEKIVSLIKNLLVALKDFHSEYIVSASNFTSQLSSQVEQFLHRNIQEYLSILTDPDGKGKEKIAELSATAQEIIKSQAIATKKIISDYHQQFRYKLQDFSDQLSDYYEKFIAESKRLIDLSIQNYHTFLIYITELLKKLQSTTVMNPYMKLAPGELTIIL

Regarding “E/C oligonucleotide (E-box CANNTG and CCAAT)”, the binding signal (% of total labeled DNA) is below 1.
As for SRE oligonucleotide, the binding signal (% of total labeled DNA) is below 1.
